# Assay results reported in article PMC11284679, “A designed ankyrin-repeat protein that targets Parkinson’s disease-associated LRRK2” (The Journal of Biological Chemistry, 2024).
# T1: biotinylated LRRK2^RCKW (LRRK2 residues 1327 to 2527) (UniProt Q5S007 1327-2527, biotin (biotinylated; site not stated))
# T1 construct: Leucine rich repeat kinase 2 (LRRK2), C-terminal catalytic half with ROC GTPase, COR-A, COR-B, kinase and WD40 domains, residues 1327 to 2527; also called biotinylated LRRK2^RCKW protein; source: Sf9 (baculovirus, medium with 0.1 mM biotin), purified (Ni-NTA, TEV, Ni-NTA, S200 gel filtration); not shown: His6, N-terminal, cleaved
# T1 sequence (looked up): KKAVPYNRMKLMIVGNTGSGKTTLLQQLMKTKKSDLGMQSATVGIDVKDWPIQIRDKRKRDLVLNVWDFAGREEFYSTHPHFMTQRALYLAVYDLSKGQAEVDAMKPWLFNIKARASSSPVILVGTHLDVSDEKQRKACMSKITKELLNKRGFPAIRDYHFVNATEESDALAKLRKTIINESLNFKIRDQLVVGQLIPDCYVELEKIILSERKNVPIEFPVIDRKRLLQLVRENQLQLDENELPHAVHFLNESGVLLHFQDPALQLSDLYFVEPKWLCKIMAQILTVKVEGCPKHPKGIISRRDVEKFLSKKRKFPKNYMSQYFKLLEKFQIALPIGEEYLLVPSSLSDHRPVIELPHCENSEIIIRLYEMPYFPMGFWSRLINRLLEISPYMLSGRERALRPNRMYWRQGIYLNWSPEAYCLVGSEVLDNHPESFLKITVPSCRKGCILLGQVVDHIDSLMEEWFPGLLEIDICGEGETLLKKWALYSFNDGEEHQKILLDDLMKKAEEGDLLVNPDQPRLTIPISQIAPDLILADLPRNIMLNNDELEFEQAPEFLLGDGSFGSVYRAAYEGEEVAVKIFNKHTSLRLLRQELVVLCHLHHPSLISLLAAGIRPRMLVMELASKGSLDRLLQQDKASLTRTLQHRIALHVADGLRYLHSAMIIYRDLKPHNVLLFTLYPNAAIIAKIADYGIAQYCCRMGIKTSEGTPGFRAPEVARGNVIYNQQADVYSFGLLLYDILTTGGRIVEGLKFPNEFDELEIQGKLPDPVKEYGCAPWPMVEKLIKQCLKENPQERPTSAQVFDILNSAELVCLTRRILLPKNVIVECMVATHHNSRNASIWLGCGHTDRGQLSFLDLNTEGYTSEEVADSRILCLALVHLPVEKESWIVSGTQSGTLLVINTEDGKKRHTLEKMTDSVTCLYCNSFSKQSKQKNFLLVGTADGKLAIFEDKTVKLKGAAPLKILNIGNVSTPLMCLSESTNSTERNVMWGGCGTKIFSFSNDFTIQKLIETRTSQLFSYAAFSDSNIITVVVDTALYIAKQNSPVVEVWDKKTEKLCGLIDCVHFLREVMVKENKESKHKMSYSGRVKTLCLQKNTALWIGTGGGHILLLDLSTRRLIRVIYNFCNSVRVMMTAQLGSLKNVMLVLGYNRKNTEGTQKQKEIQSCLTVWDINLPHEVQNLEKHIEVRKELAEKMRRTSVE
# Experiments:
# [1] = target: T1, biotinylated LRRK2^RCKW (LRRK2 residues …); test: SPR; Biacore T200; 850 RU biotinylated LRRK2^RCKW on a streptavidin-coated Series S CM5 chip; DARPin E11 in the mobile phase, 30 μl/min; 20 mM Hepes pH 7.4, 150 mM NaCl, 0.5 mM TCEP, 20 μM GDP, 2.5 mM MgCl2; plateau values fitted to a Langmuir model; conditions: both partners purified
# [2] = target: T1, biotinylated LRRK2^RCKW (LRRK2 residues …); test: BLI; Octet Red96, 25 °C; biotinylated LRRK2^RCKW on streptavidin biosensors; DARPin E11 15 to 1000 nM; 50 mM Hepes pH 8.0, 150 mM NaCl, 10 mM MgCl2, 5% glycerol, 0.1% BSA, 0.05% Tween 20, 500 μM GDP; Req fitted to a Langmuir model; conditions: both partners purified
# [3] = target: LRRK2^RCKW (purified for cryo-EM from His6-Z-TEV-LRRK2^RCKW); test: mass photometry; Refeyn Two MP; LRRK2^RCKW alone or with a 2.5-fold excess of DARPin E11; 20 mM Hepes pH 7.4, 150 mM NaCl, 2.5 mM MgCl2, 5% glycerol, 20 μM GDP, 0.5 mM TCEP
binder,measurement,setting,value
"DARPin E11 (designed binder, Designed ankyrin-repeat protein selected by ribosome display against LRRK2^RCKW; also called 008-807-2362-H9; 8xHis-DARPin E11-3xFLAG; source: E. coli Rosetta, purified (Ni-NTA, SEC)) MRGSHHHHHHHHGSDLGKKLLEAARAGQDDEVRILMANGADVNATDEAGVTPLHLAADSGHLEIVEVLLKTGADVNAWDHYGFTPLHLAAHVGHLEIVEVLLKAGADVNAQDHAGWTPLHLAALYGHLEIVEVLLKHGADVNAQDMWGETPFDLAIDNGNEDIAEVLQKAAKLNDYKDDDDK",Kd,[1],70 nM
same,koff,[1],~0.005 s⁻¹
same,Kd,[2],11 nM
same,stoichiometry N,[3],1
